Measured values reported in patent US20140037648A1 (HUMABS BIOMED, published 2014).

Tests used:
[1] = molecular target: T1, stabilized form of the full-length pre-fusion RSV F protein (RSV); assay: surface plasmon resonance
T1 construct: also called pre-fusion F protein; RSV F pre-fusion recombinant protein

[2] = molecular target: F protein of PVM strain 15 (PVM (strain 15)); assay: cell-based or functional assay
[3] = molecular target: F protein of BRSV strain RB94 (BRSV (strain RB94)); assay: cell-based or functional assay
[4] = molecular target: F protein of RSV WV/14617/85 (B, Huntington West Virginia, 1985; B/14617/85) (RSV (strain WV/14617/85)); assay: cell-based or functional assay
[5] = molecular target: F protein of RSV 18537 (B, Washington District of Columbia US, 1962; B/18537/62) (RSV (strain 18537), UniProt P13843 26-574); assay: cell-based or functional assay
[6] = molecular target: T2, F protein of RSV strain A2 (A, 1961 Australia; A/A2/61) (RSV (strain A2), UniProt P03420 26-574); assay: cell-based or functional assay
[7] = molecular target: F protein of RSV 9320 (B, Massachusetts US, 1977; B/9320/77) (RSV (strain 9320)); assay: cell-based or functional assay
[8] = molecular target: T2, F protein of RSV strain A2 (A, 1961 …); assay: cell-based or functional assay; remark: listed apart in the source

B1: HMB3210v3 (antibody, V domains shown)
VH: EVQLVESGGGLVKPGGSLRLSCAASGFTFSSYSMNWVRQAPGKGLEWVSSISASSSYSDYADSAKGRFTISRDNAKTSLFLQMNSLRAEDTAIYFCARARATGYSSITPYFDIWGQGTLVTVSS
VL: QSVVTQPPSVSGAPGQRVTISCTGSSSNIGAGYDVHWYQQLPGTAPKLLIYDNNNRPSGVPDRFSASKSGTSASLAITGLQAEDEADYYCQSYDRSLSGVFGTGTKVTVL
notes: also called HMB3210 variant 3
For B1, the Kd [1] was 0.1 nM, the “IC50, neutralization of PVM strain 15” value [2] was 0.1 µg/mL and the “IC50, neutralization of BRSV strain RB94” value [3] was 0.01 µg/mL.

B2: Palivizumab (antibody, V domains shown)
VH: QVTLRESGPALVKPTQTLTLTCTFSGFSLSTSGMSVGWIRQPPGKALEWLADIWWDDKKDYNPSLKSRLTISKDTSKNQVVLKVTNMDPADTATYYCARSMITNWYFDVWGAGTTVTVSS
VL: DIQMTQSPSTLSASVGDRVTITCKCQLSVGYMHWYQQKPGKAPKLLIYDTSKLASGVPSRFSGSGSGTEFTLTISSLQPDDFATYYCFQGSGYPFTFGGGTKLEIK
For B2, the “Neutralization IC50” value [4] was 0.129 µg/mL, the “Neutralization IC50” value [5] was 0.143 µg/mL and the “Neutralization IC50” value [6] was 0.617 µg/mL. The “Neutralization IC50” value [7] was 0.069 µg/mL and the “IC50 (ng/ml), microneutralization” value [8] was 524 ng/mL.
